Target: Drug A
Assay: cell-based or functional assay

B1: Fab of Antibody B (Fab, V domains shown)
VH: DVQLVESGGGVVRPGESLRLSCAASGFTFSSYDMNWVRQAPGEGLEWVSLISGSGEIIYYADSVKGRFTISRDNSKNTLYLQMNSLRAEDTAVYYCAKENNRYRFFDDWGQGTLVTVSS
VL: ETVLTQSPGTLTLSPGERATLTCRASQSVYTYLAWYQEKPGQAPRLLIYGASSRATGIPDRFSGSGSGTEFTLTISSLQSEDFAVYYCQQYYDRPPLTFGGGTKVEIK
**Q.** With B1 as the binder, how does the “hemagglutination of Drug A-coated erythrocytes with anti-IgG; molar excess of Fab that prevented it” value read?
**A.** Its value is 400 fold molar excess relative to Drug A.
